This note sets out measurements from publication PMC6994237, “HOPS recognizes each SNARE, assembling ternary trans-complexes for rapid fusion upon engagement with the 4th SNARE” (eLife, 2020).

To fix the notation:
T1: Qa-SNARE Vam3, full-length, wild-type (S. cerevisiae, UniProt Q12241 1-283)
T1 construct: Vam3, vacuolar Qa-SNARE, S. cerevisiae, full length; Isolated as GST-Qa (Mima et al., 2008); also called GST-Qa; source: E. coli, purified; reconstituted into proteoliposomes
T1 sequence (looked up): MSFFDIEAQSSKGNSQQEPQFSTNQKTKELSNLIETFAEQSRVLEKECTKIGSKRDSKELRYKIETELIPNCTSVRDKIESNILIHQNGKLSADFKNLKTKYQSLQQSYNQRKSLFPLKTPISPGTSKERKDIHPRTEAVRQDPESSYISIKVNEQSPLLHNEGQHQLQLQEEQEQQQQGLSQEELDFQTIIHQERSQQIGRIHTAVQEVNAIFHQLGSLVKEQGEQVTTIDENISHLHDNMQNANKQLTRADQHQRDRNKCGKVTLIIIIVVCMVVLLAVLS

T2: Qc-SNARE Vam7, full-length, wild-type (inherently water-soluble) (S. cerevisiae, UniProt P32912 1-316)
T2 construct: Vam7, vacuolar Qc-SNARE, S. cerevisiae, full length; source: E. coli, purified
T2 sequence (looked up): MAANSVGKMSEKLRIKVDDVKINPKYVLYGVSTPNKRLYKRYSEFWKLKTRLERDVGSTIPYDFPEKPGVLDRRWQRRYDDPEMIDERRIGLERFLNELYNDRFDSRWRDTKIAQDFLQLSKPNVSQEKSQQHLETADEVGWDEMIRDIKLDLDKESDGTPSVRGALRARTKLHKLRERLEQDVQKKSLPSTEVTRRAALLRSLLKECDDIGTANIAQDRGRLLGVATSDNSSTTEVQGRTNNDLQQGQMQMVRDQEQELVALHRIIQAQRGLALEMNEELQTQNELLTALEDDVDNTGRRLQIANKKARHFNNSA

B1: GST-Nyv1, GST-tagged full-length R SNARE (natural protein, S. cerevisiae, UniProt Q12255 1-253, looked up)
chain: MKRFNVSYVEVIKNGETISSCFQPFQKNENYGTITSANEQITPVIFHNLIMDMVLPKVVPIKGNKVTKMSMNLIDGFDCFYSTDDHDPKTVYVCFTLVDMPKILPIRILSGLQEYESNATNELLSSHVGQILDSFHEELVEYRNQTLNSSGNGQSSNGNGQNTISDIGDATEDQIKDVIQIMNDNIDKFLERQERVSLLVDKTSQLNSSSNKFRRKAVNIKEIMWWQKVKNITLLTFTIILFVSAAFMFFYLW
notes: Nyv1, vacuolar R-SNARE, S. cerevisiae, full length, cloned into pGST parallel1; Vector pGST parallel1 (Sheffield et al., 1999), BamHI/SalI; also called GST-R; GST-tagged R SNARE; source: E. coli Rosetta(DE3)pLysS, purified (glutathione-Sepharose 4B, in β-octylglucoside)
B2: R-SNARE Nyv1, full-length, wild-type, untagged (natural protein, S. cerevisiae, UniProt Q12255 1-253, looked up)
chain: B1 chain
notes: Nyv1, vacuolar R-SNARE, S. cerevisiae, full length; source: E. coli, purified; buffer exchanged into β-octylglucoside; reconstituted into proteoliposomes
B3: his6-Vti1 (full length), his6-tagged Qb SNARE (natural protein, S. cerevisiae, UniProt Q04338 1-217, looked up)
chain: MSSLLISYESDFKTTLEQAKASLAEAPSQPLSQRNTTLKHVEQQQDELFDLLDQMDVEVNNSIGDASERATYKAKLREWKKTIQSDIKRPLQSLVDSGDRDRLFGDLNASNIDDDQRQQLLSNHAILQKSGDRLKDASRIANETEGIGSQIMMDLRSQRETLENARQTLFQADSYVDKSIKTLKTMTRRLVANKFISYAIIAVLILLILLVLFSKFK
notes: Vti1, vacuolar Qb-SNARE, S. cerevisiae, full length; A 36 amino acyl linker stands between the his6 tag and the N-terminus (Izawa et al., 2012, PMID 22174414); also called his6-Qb; source: E. coli, purified; not shown: His6 (with a 36 amino acyl linker), N-terminal, kept
B4: Qb-SNARE Vti1, full-length, wild-type (natural protein, S. cerevisiae, UniProt Q04338 1-217, looked up)
chain: B3 chain
notes: Vti1, vacuolar Qb-SNARE, S. cerevisiae, full length; the text names it Qb without a tag; also called GST-Qb; source: E. coli, purified; buffer exchanged into β-octylglucoside; reconstituted into proteoliposomes
B5: his6-Vam3 (full length), His6-tagged Qa SNARE (natural protein, S. cerevisiae, UniProt Q12241 1-283, looked up)
chain: T1 sequence (looked up)
notes: Vam3, vacuolar Qa-SNARE, S. cerevisiae, full length; A 36 amino acyl linker stands between the his6 tag and the N-terminus (Izawa et al., 2012, PMID 22174414); also called His6-Qa; source: E. coli, purified; not shown: His6 (with a 36 amino acyl linker), N-terminal, kept

What all share (details): both partners purified
Experiment [1] has as its target T1, Qa-SNARE Vam3, full-length, wild-type. The experiment in a line: pull-down; GST-tagged R at 4 µM mixed with 4 µM of the other indicated full-length SNAREs in 20 mM HEPES-NaOH pH 7.4, 150 mM NaCl, 10% glycerol, 100 mM ß-octylglucoside; 1 hr 4°C; glutathione agarose 4B; Coomassie-stained gel.
Experiment [2] has the same target. The experiment in a line: co-IP; Ypt7/R and Ypt7/QaQb proteoliposomes incubated 33 min with or without 50 nM HOPS and 4 μM Qc; solubilised in modified RIPA buffer with 5 μM GST-R; precipitated with anti-Qa antibody on protein A magnetic beads, 4°C 2 hr; immunoblot for R. (In western blotting, separated proteins are transferred to a membrane and probed.)
For experiment [3], the target named is B5. The experiment in a line: pull-down; his6-tagged Qa or his6-tagged Qb at 4 µM mixed with 4 µM of the other indicated full-length SNAREs in 20 mM HEPES-NaOH pH 7.4, 150 mM NaCl, 10% glycerol, 100 mM ß-octylglucoside, 20 mM imidazole; 1 hr 4°C; nickel-NTA agarose; Coomassie-stained gel.
Experiment [4] has as its target T1, Qa-SNARE Vam3, full-length, wild-type. The experiment is described as above.
In experiment [5] the target is T2, Qc-SNARE Vam7, full-length, wild-type …. The experiment is described as above.

Turning to B1, the binding result in experiment [1] is given as “binds”.
Take B2: the binding result in experiment [2] and in experiment [3] was “binds” throughout.
Regarding B3, the binding result in experiment [4] is recorded as “binds”.
For B4, the binding result in experiment [3] is recorded as “binds”.
As for B5, in experiment [5], the binding result is on record as “binds”.
